# Experimental data as given in the RNAGym collection of RNA variant scans (doi:10.7554/elife.90254).
# B1: LINE1-mini (parent)
# chain: GGCAGAGCUCAACACAGCGUGGCAAAGUGGCUGUGGCUAGACUGCC
# Variants of: B1
# Experiment: self-cleavage, relative activity (ratio to wild type); higher = more cleavage; in vitro, sequencing; the parent is a self-cleaving ribozyme
row,Variant,self-cleavage
1,GGCAGAGCUCAACACAGCGUGGAAAAGUGGCUGUGGCUCGACUGCC [C23A A39C],0.27
2,GGCAGAGCUCAACACAGCGUGGAAAAGUGGCUGUGGCUGGACUGCC [C23A A39G],0.08
3,GGCAGAGCUCAACACAGCGUGGAAAAGUGGCUGUGGCUUGACUGCC [C23A A39U],0.73
4,GGCAGAGCUCAACACAGCGUGGAAACGUGGCUGUGGCUAGACUGCC [C23A A26C],0.98
5,GGCAGAGCUCAACACAGCGUGGAAAGGUGGCUGUGGCUAGACUGCC [C23A A26G],0.94
6,GGCAGAGCUCAACACAGCGUGGAAAUGUGGCUGUGGCUAGACUGCC [C23A A26U],0.88
7,GGCAGAGCUCAACACAGCGUGUCAAAGUGGCUGUGGCUAGACUGCG [G22U C46G],0.91
8,GGCAGAGCUCAACACAGCGUGUCAAAGUGGCUGUGGCUAGACUGCU [G22U C46U],1.22
9,GGCAGAGCUCAACACAGCGUGUCAAAGUGGCUGUGGCUAGACUGCA [G22U C46A],1.15
10,GGCAGAGCUCAACACAGCGUGUCAAAGUGGUUGUGGCUAGACUGCC [G22U C31U],0.4
11,GGCAGAGCUCAACACAGCGUGUCAAAGUGGAUGUGGCUAGACUGCC [G22U C31A],0.2
12,GGCAGAGCUCAACACAGCGUGUCAAAGUGGGUGUGGCUAGACUGCC [G22U C31G],0.22
13,GGCAGAGCUCAACACAGCGUGUCAAAGUGGCUGUGGCCAGACUGCC [G22U U38C],2.12
14,GGCAGAGCUCAACACAGCGUGUCAAAGUGGCUGUGGCAAGACUGCC [G22U U38A],0.46
15,GGCAGAGCUCAACACAGCGUGUCAAAGUGGCUGUGGCGAGACUGCC [G22U U38G],0.04
16,GGCAGAGCUCAACACAGCGUGUCCAAGUGGCUGUGGCUAGACUGCC [G22U A24C],0.92
17,GGCAGAGCUCAACACAGCGUGUCUAAGUGGCUGUGGCUAGACUGCC [G22U A24U],1.4
18,GGCAGAGCUCAACACAGCGUGUCGAAGUGGCUGUGGCUAGACUGCC [G22U A24G],1.25
19,GGCAGAGCUCAACACAGCGUGUCAAAGUGGCUGUGGCUAGAUUGCC [G22U C42U],0.39

row,Variant,self-cleavage
1,GGCAGAGCUCAACACAGCGUGUCAAAGUGGCUGUGGCUAGAAUGCC [G22U C42A],0.28
2,GGCAGAGCUCAACACAGCGUGUCAAAGUGGCUGUGGCUAGAGUGCC [G22U C42G],0.04
3,GGCAGAGCUCAACACAGCGUGGAAAAGUGGCUGUGGCUAGACUGUC [C23A C45U],1.97
4,GGCAGAGCUCAACACAGCGUGGAAAAGUGGCUGUGGCUAGACUGAC [C23A C45A],1.12
5,GGCAGAGCUCAACACAGCGUGGAAAAGUGGCUGUGGCUAGACUGGC [C23A C45G],0.42
6,GGCAGAGCUCAACACAGCGUGGAAAAGUGGCUGUGGGUAGACUGCC [C23A C37G],0.02
7,GGCAGAGCUCAACACAGCGUGGAAAAGUGGCUGUGGAUAGACUGCC [C23A C37A],0.06
8,GGCAGAGCUCAACACAGCGUGGAAAAGUGGCUGUGGUUAGACUGCC [C23A C37U],0.03
9,GGCAGAGCUCAACACAGCGUGCCAAAGUGGCUGUGGCGAGACUGCC [G22C U38G],0.05
10,GGCAGAGCUCAACACAGCGUGCCAAAGUGGCUGUGGCCAGACUGCC [G22C U38C],0.68
11,GGCAGAGCUCAACACAGCGUGCCAAAGUGGCUGUGGCAAGACUGCC [G22C U38A],0.31
12,GGCAGAGCUCAACACAGCGUGUCAAAGUGGCAGUGGCUAGACUGCC [G22U U32A],0.13
13,GGCAGAGCUCAACACAGCGUGUCAAAGUGGCCGUGGCUAGACUGCC [G22U U32C],0.6
14,GGCAGAGCUCAACACAGCGUGUCAAAGUGGCGGUGGCUAGACUGCC [G22U U32G],0.15
15,GGCAGAGCUCAACACAGCGUGUUAAAGUGGCUGUGGCUAGACUGCC [G22U C23U],1.8
16,GGCAGAGCUCAACACAGCGUGUAAAAGUGGCUGUGGCUAGACUGCC [G22U C23A],1.25
17,GGCAGAGCUCAACACAGCGUGUGAAAGUGGCUGUGGCUAGACUGCC [G22U C23G],2.27
18,GGCAGAGCUCAACACAGCGUGUCAAUGUGGCUGUGGCUAGACUGCC [G22U A26U],1.59
19,GGCAGAGCUCAACACAGCGUGUCAAGGUGGCUGUGGCUAGACUGCC [G22U A26G],1.68

row,Variant,self-cleavage
1,GGCAGAGCUCAACACAGCGUGUCAACGUGGCUGUGGCUAGACUGCC [G22U A26C],1.53
2,GGCAGAGCUCAACACAGCGUGGACAAGUGGCUGUGGCUAGACUGCC [C23A A24C],0.85
3,GGCAGAGCUCAACACAGCGUGGAUAAGUGGCUGUGGCUAGACUGCC [C23A A24U],1
4,GGCAGAGCUCAACACAGCGUGGAGAAGUGGCUGUGGCUAGACUGCC [C23A A24G],0.53
5,GGCAGAGCUCAACACAGCGUGUCAAAGUGGCUGUGGCUAGACUGUC [G22U C45U],1.25
6,GGCAGAGCUCAACACAGCGUGUCAAAGUGGCUGUGGCUAGACUGAC [G22U C45A],0.88
7,GGCAGAGCUCAACACAGCGUGUCAAAGUGGCUGUGGCUAGACUGGC [G22U C45G],0.42
8,GGCAGAGCUCAACACAGCGUGUCAAAGUGGCUGUGGCUAGACAGCC [G22U U43A],0.06
9,GGCAGAGCUCAACACAGCGUGUCAAAGUGGCUGUGGCUAGACGGCC [G22U U43G],0.03
10,GGCAGAGCUCAACACAGCGUGUCAAAGUGGCUGUGGCUAGACCGCC [G22U U43C],0.18
11,GGCAGAGCUCAACACAGCGUGUCAAAGUGGCUCUGGCUAGACUGCC [G22U G33C],0.07
12,GGCAGAGCUCAACACAGCGUGUCAAAGUGGCUAUGGCUAGACUGCC [G22U G33A],0.63
13,GGCAGAGCUCAACACAGCGUGUCAAAGUGGCUUUGGCUAGACUGCC [G22U G33U],0.28
14,GGCAGAGCUCAACACAGCGUGUCAAAGUGGCUGUGGCUAGACUGCC [G22U],1.38
15,GGCAGAGCUCAACACAGCGUGUCAAAGUGGCUGUUGCUAGACUGCC [G22U G35U],0.39
16,GGCAGAGCUCAACACAGCGUGUCAAAGUGGCUGUCGCUAGACUGCC [G22U G35C],0.22
17,GGCAGAGCUCAACACAGCGUGUCAAAGUGGCUGUAGCUAGACUGCC [G22U G35A],0.15
18,GGCAGAGCUCAACACAGCGUGUCAAAGUGGCUGUGGCUGGACUGCC [G22U A39G],0.08
